Reference: patent US20210047426A1 (MacroGenics, published 2021)

Tests used:
[1] = biological target: T1, Human CD123-His (soluble human IL3R-alpha) (human, UniProt P26951 19-305, limits assumed); experiment: bifunctional ELISA, plate coated with human CD123, detection with human CD3-biotin and streptavidin-HRP
T1 construct: also called interleukin 3 receptor alpha chain; not shown: His tag
T1 sequence (looked up): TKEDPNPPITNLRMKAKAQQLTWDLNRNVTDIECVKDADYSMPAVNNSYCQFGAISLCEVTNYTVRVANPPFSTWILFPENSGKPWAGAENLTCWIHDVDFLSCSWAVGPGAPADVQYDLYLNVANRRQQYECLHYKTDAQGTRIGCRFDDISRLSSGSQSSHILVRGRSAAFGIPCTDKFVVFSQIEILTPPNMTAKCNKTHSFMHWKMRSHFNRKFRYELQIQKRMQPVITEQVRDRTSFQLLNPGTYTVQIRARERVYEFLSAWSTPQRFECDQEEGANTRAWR
Method: (§1) A MaxiSorp ELISA plate (Nunc) coated overnight with the soluble human or cynomolgus IL3R-alpha (0.5 μg/mL) in bicarbonate buffer was blocked with 0.5% BSA; 0.1% Tween-20 in PBS (PBST/BSA) for 30 minutes at room temperature. […] HRP activity was detected by conversion of tetramethylbenzidine (BioFX) as substrate for 5 min; the reaction was terminated with […] of 1% […] and the absorbance read at 450 nm.

[2] = biological target: T2, Human CD123 on the surface of leukemic cell lines (human, UniProt P26951 19-378); experiment: FACS on Molm-13 cells, detection with a monoclonal antibody to the E-coil/K-coil region
T2 construct: whole, on cells; also called CD123 on Molm-13, Kasumi-3, THP-1, TF-1 and RS4-11 cells

[3] = biological target: T2, Human CD123 on the surface of leukemic …; experiment: cell-based or functional assay
[4] = biological target: T3, Cynomolgus CD123-His (soluble cynomolgus IL3R-alpha) (cynomolgus monkey); experiment: BIACORE surface plasmon resonance, purified cynomolgus monkey CD123 captured and immobilized, 1:1 binding fit
T3 construct: also called cynomolgus monkey CD123; monkey CD123
Source text: (§2) BIACORE™ analyses measure the dissociation off-rate, kd. The binding affinity (KD) between an antibody and its target is a function of the kinetic constants for association (on rate, ka) and dissociation (off-rate, kd) according to the formula: KD=[kd]/[ka]. The BIACORE™ analysis uses surface plasmon resonance to directly measure these kinetic parameters. Recombinant human or cynomolgus monkey CD3 was directly immobilized to a support. Purified human or cynomolgus monkey CD123 was captured and immolbilized to a support. The time course of dissociation was measured and a […] of the data conducted. Binding constants and affinity were obtained using a 1:1 binding fit.

[5] = biological target: T1, Human CD123-His (soluble human …); experiment: SPR (BIAcore 3000), antigen immobilized on the chip, DART-A injected, 1:1 Langmuir fit, mean of 3 experiments
Method: (§3) Briefly, the carboxyl groups on the CMS sensor chip were activated with an injection of 0.2M N-ethyl-N-([…]) carbodiimide and 0.05M N-hydroxy-succinimide. Soluble CD3 or CD123 (1 μg/ml) was injected over the activated CMS surface in 10 mM sodium-acetate, pH 5.0, at flow rate 5 μL/min, followed by 1 M ethanolamine for deactivation. Binding experiments were performed in 10 mM HEPES, pH 7.4, 150 mM NaCl, 3 mM EDTA and 0.005% P20 surfactant. Regeneration of the immobilized receptor surfaces was performed by pulse injection of 10 mM glycine, pH 1.5. KD values were determined by a global fit of binding curves to the Langmuir 1:1 binding model (BIAevaluation software v4.1).
(§4) The data in Table 7 are averages of 3 independent experiments each performed in duplicates.

[6] = biological target: T3, Cynomolgus CD123-His (soluble …); experiment: as above
Method: as §3, §4

[7] = biological target: T1, Human CD123-His (soluble human …); experiment: BIACORE surface plasmon resonance, purified human CD123 captured and immobilized, 1:1 binding fit
Source text: as §2

[8] = biological target: T3, Cynomolgus CD123-His (soluble …); experiment: bifunctional ELISA, plate coated with cynomolgus monkey CD123, detection with human CD3-biotin and streptavidin-HRP
Method: as §1

B1: Control Bi-Specific Diabody (Control DART) (bispecific antibody)
chain 1: DVVMTQTPFSLPVSLGDQASISCRSSQSLVHSNGNTYLRWYLQKPGQSPKVLIYKVSNRFSGVPDRFSGSGSGTDFTLKISRVEAEDLGVYFCSQSTHVPWTFGGGTKLEIKGGGSGGGGEVQLVESGGGLVQPGGSLRLSCAASGFTFNTYAMNWVRQAPGKGLEWVARIRSKYNNYATYYADSVKDRFTISRDDSKNSLYLQMNSLKTEDTAVYYCVRHGNFGNSYVSWFAYWGQGTLVTVSSGGCGGGEVAALEKEVAALEKEVAALEKEVAALEK
chain 2: QAVVTQEPSLTVSPGGTVTLTCRSSTGAVTTSNYANWVQQKPGQAPRGLIGGTNKRAPWTPARFSGSLLGGKAALTITGAQAEDEADYYCALWYSNLWVFGGGTKLTVLGGGGSGGGGEVKLDETGGGLVQPGRPMKLSCVASGFTFSDYWMNWVRQSPEKGLEWVAQIRNKPYNYETYYSDSVKGRFTISRDDSKSSVYLQMNNLRVEDMGIYYCTGSYYGMDYWGQGTSVTVSSGGCGGGKVAALKEKVAALKEKVAALKEKVAALKE
notes: Bi-specific for fluorescein (FITC) and CD3; has no CD123 arm; also called FITC × CD3 control diabody
Question: Does B1 bind [1]?
Answer: no binding (tested: 1 ug/mL)

Question: Does B1 bind [2]?
Answer: no binding

B2: Sequence-Optimized CD123 × CD3 Bi-Specific Diabody Having an Albumin-Binding Domain (DART-A w/ABD) (bispecific antibody)
chain 1: QAVVTQEPSLTVSPGGTVTLTCRSSTGAVTTSNYANWVQQKPGQAPRGLIGGTNKRAPWTPARFSGSLLGGKAALTITGAQAEDEADYYCALWYSNLWVFGGGTKLTVLGGGGSGGGGEVQLVQSGAELKKPGASVKVSCKASGYTFTDYYMKWVRQAPGQGLEWIGDIIPSNGATFYNQKFKGRVTITVDKSTSTAYMELSSLRSEDTAVYYCARSHLLRASWFAYWGQGTLVTVSSGGCGGGEVAALEKEVAALEKEVAALEKEVAALEKGGGSLAEAKVLANRELDKYGVSDYYKNLIDNAKSAEGVKALIDEILAALP
chain 2: DFVMTQSPDSLAVSLGERVTMSCKSSQSLLNSGNQKNYLTWYQQKPGQPPKLLIYWASTRESGVPDRFSGSGSGTDFTLTISSLQAEDVAVYYCQNDYSYPYTFGQGTKLEIKGGGSGGGGEVQLVESGGGLVQPGGSLRLSCAASGFTFSTYAMNWVRQAPGKGLEWVGRIRSKYNNYATYYADSVKDRFTISRDDSKNSLYLQMNSLKTEDTAVYYCVRHGNFGNSYVSWFAYWGQGTLVTVSSGGCGGGKVAALKEKVAALKEKVAALKEKVAALKE
Question: What does the source list for B2?
Answer: EC50 of redirected killing of Kasumi-3 cells (LDH release, E:T = 10:1) [3]: 0.01 ng/mL; EC50 of redirected killing of Molm13 cells (LDH release, E:T = 10:1) [3]: 0.18 ng/mL; EC50 of redirected killing of RS4-11 cells (LDH release, E:T = 10:1) [3]: 0.5 ng/mL; EC50 of redirected killing of TF-1 cells (LDH release, E:T = 10:1) [3]: 0.46 ng/mL; EC50 of redirected killing of THP-1 cells (LDH release, E:T = 10:1) [3]: 0.24 ng/mL

B3: Sequence-Optimized CD123 × CD3 Bi-Specific Diabody (DART-A) (bispecific antibody)
chain 1: QAVVTQEPSLTVSPGGTVTLTCRSSTGAVTTSNYANWVQQKPGQAPRGLIGGTNKRAPWTPARFSGSLLGGKAALTITGAQAEDEADYYCALWYSNLWVFGGGTKLTVLGGGGSGGGGEVQLVQSGAELKKPGASVKVSCKASGYTFTDYYMKWVRQAPGQGLEWIGDIIPSNGATFYNQKFKGRVTITVDKSTSTAYMELSSLRSEDTAVYYCARSHLLRASWFAYWGQGTLVTVSSGGCGGGEVAALEKEVAALEKEVAALEKEVAALEK
chain 2: B2 chain 2
notes: Two-chain heterodimer, the chains disulfide-bonded to one another; one CD123 site and one CD3 site; 58.9 kDa
Question: Which “EC50 (read off the curve)” value [1] does the source give for B3 here?
Answer: ~10 ng/mL

Question: What about the Kd [4] of the same binder?
Answer: 0.27 nM

Question: What about the Kd [5] of the same binder?
Answer: 0.13 nM

Question: And the koff [5]?
Answer: 0.00019 s⁻¹

Question: And the kon [5]?
Answer: 1.6e+06 M⁻¹ s⁻¹

Question: What about the Kd [6] of the same binder?
Answer: 0.27 nM

Question: What about the koff [6] of the same binder?
Answer: 0.0004 s⁻¹

Question: What about the kon [6] of the same binder?
Answer: 1.5e+06 M⁻¹ s⁻¹

Question: What about the Kd [7] of the same binder?
Answer: 0.14 nM

Question: What about the “EC50 (read off the curve)” value [8] of the same binder?
Answer: ~40 ng/mL
